Here are results for three substances from publication PMC3497011.

For assay [1], the target named is EGFR-GGS, chimeric receptor in which the JM domain is replaced by a (GGS)10 sequence. Kind of assay: flow cytometry on cells.
The target is the same in assay [2]. Briefly: cross-linking.
For assay [3], the target named is EGFR-GGS tagged at the C-terminus with a fluorescent protein (EGFR-GGS-YFP and EGFR-GGS-mCherry, co-expressed). Kind of assay: FRET or BRET.

Consider Alexa Fluor 488-labeled EGF (ligand), for which the ratio of EGFR-GGS-bound ligand to EGFR-bound ligand in assay [1] was 1.
With “EGFR-GGS, chimeric receptor in which the JM domain is replaced by a (GGS)10 sequence”, in assay [2], the cross-linked fraction (no ligand) stood at 0.42, the cross-linked fraction (with EGF) was 0.64 and the stoichiometry N was 2.
On to “EGFR-GGS tagged at the C-terminus with a fluorescent protein (EGFR-GGS-YFP and EGFR-GGS-mCherry, co-expressed) (receptor)”, for which the FRET efficiency in assay [3] came out at 0.25.
